Data taken from IntAct's records for PubMed 25502805.

B1: Interleukin-1 receptor-associated kinase 4 (Homo sapiens), Q9NWZ3 (parent)
chain: MNKPITPSTYVRCLNVGLIRKLSDFIDPQEGWKKLAVAIKKPSGDDRYNQFHIRRFEALLQTGKSPTSELLFDWGTTNCTVGDLVDLLIQNEFFAPASLLLPDAVPKTANTLPSKEAITVQQKQMPFCDKDRTLMTPVQNLEQSYMPPDSSSPENKSLEVSDTRFHSFSFYELKNVTNNFDERPISVGGNKMGEGGFGVVYKGYVNNTTVAVKKLAAMVDITTEELKQQFDQEIKVMAKCQHENLVELLGFSSDGDDLCLVYVYMPNGSLLDRLSCLDGTPPLSWHMRCKIAQGAANGINFLHENHHIHRDIKSANILLDEAFTAKISDFGLARASEKFAQTVMTSRIVGTTAYMAPEALRGEITPKSDIYSFGVVLLEIITGLPAVDEHREPQLLLDIKEEIEDEEKTIEDYIDKKMNDADSTSVEAMYSVASQCLHEKKNKRPDIKKVQQLLQEMTAS
B2: Actin nucleation-promoting factor WAS (Homo sapiens), P42768 (parent)
chain: MSGGPMGGRPGGRGAPAVQQNIPSTLLQDHENQRLFEMLGRKCLTLATAVVQLYLALPPGAEHWTKEHCGAVCFVKDNPQKSYFIRLYGLQAGRLLWEQELYSQLVYSTPTPFFHTFAGDDCQAGLNFADEDEAQAFRALVQEKIQKRNQRQSGDRRQLPPPPTPANEERRGGLPPLPLHPGGDQGGPPVGPLSLGLATVDIQNPDITSSRYRGLPAPGPSPADKKRSGKKKISKADIGAPSGFKHVSHVGWDPQNGFDVNNLDPDLRSLFSRAGISEAQLTDAETSKLIYDFIEDQGGLEAVRQEMRRQEPLPPPPPPSRGGNQLPRPPIVGGNKGRSGPLPPVPLGIAPPPPTPRGPPPPGRGGPPPPPPPATGRSGPLPPPPPGAGGPPMPPPPPPPPPPPSSGNGPAPPPLPPALVPAGGLAPGGGRGALLDQIRQGIQLNKTPGAPESSALQPPPQSSEGLVGALMHVMQKRSRAIHSSDEGEDQAGDEDEDDEWDD
B3: Cyclin-dependent kinase 4 (Homo sapiens), P11802 (parent)
chain: MATSRYEPVAEIGVGAYGTVYKARDPHSGHFVALKSVRVPNGGGGGGGLPISTVREVALLRRLEAFEHPNVVRLMDVCATSRTDREIKVTLVFEHVDQDLRTYLDKAPPPGLPAETIKDLMRQFLRGLDFLHANCIVHRDLKPENILVTSGGTVKLADFGLARIYSYQMALTPVVVTLWYRAPEVLLQSTYATPVDMWSVGCIFAEMFRRKPLFCGNSEADQLGKIFDLIGLPPEDDWPRDVSLPRGAFPPRGPRPVQSVVPEMEESGAQLLLEMLTFNPHKRISAFRALQHSYLHKDEGNPE
B4: Scaffold protein ILK (Homo sapiens), Q13418 (parent)
chain: MDDIFTQCREGNAVAVRLWLDNTENDLNQGDDHGFSPLHWACREGRSAVVEMLIMRGARINVMNRGDDTPLHLAASHGHRDIVQKLLQYKADINAVNEHGNVPLHYACFWGQDQVAEDLVANGALVSICNKYGEMPVDKAKAPLRELLRERAEKMGQNLNRIPYKDTFWKGTTRTRPRNGTLNKHSGIDFKQLNFLTKLNENHSGELWKGRWQGNDIVVKVLKVRDWSTRKSRDFNEECPRLRIFSHPNVLPVLGACQSPPAPHPTLITHWMPYGSLYNVLHEGTNFVVDQSQAVKFALDMARGMAFLHTLEPLIPRHALNSRSVMIDEDMTARISMADVKFSFQCPGRMYAPAWVAPEALQKKPEDTNRRSADMWSFAVLLWELVTREVPFADLSNMEIGMKVALEGLRPTIPPGISPHVCKLMKICMNEDPAKRPKFDMIVPILEKMQDK
partner: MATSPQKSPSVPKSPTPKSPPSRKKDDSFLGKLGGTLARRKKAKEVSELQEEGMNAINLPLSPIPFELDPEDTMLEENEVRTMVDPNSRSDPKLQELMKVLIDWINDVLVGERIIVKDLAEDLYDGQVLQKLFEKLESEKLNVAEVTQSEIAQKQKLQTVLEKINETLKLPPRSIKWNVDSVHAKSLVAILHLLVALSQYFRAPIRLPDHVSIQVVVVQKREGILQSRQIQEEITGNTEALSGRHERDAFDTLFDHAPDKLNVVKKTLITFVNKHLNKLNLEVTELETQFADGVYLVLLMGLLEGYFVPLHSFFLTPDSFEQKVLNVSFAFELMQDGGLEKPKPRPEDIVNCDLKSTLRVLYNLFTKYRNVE
B5: DNA mismatch repair protein Mlh1 (Homo sapiens), P40692 (parent)
chain: MSFVAGVIRRLDETVVNRIAAGEVIQRPANAIKEMIENCLDAKSTSIQVIVKEGGLKLIQIQDNGTGIRKEDLDIVCERFTTSKLQSFEDLASISTYGFRGEALASISHVAHVTITTKTADGKCAYRASYSDGKLKAPPKPCAGNQGTQITVEDLFYNIATRRKALKNPSEEYGKILEVVGRYSVHNAGISFSVKKQGETVADVRTLPNASTVDNIRSIFGNAVSRELIEIGCEDKTLAFKMNGYISNANYSVKKCIFLLFINHRLVESTSLRKAIETVYAAYLPKNTHPFLYLSLEISPQNVDVNVHPTKHEVHFLHEESILERVQQHIESKLLGSNSSRMYFTQTLLPGLAGPSGEMVKSTTSLTSSSTSGSSDKVYAHQMVRTDSREQKLDAFLQPLSKPLSSQPQAIVTEDKTDISSGRARQQDEEMLELPAPAEVAAKNQSLEGDTTKGTSEMSEKRGPTSSNPRKRHREDSDVEMVEDDSRKEMTAACTPRRRIINLTSVLSLQEEINEQGHEVLREMLHNHSFVGCVNPQWALAQHQTKLYLLNTTKLSEELFYQILIYDFANFGVLRLSEPAPLFDLAMLALDSPESGWTEEDGPKEGLAEYIVEFLKKKAEMLADYFSLEIDEEGNLIGLPLLIDNYVPPLEGLPIFILRLATEVNWDEEKECFESLSKECAMFYSIRKQYISEESTLSGQQSEVPGSIPNSWKWTVEHIVYKALRSHILPPKHFTEDGNILQLANLPDLYKVFERC
B6: ADP-ribosylation factor-like protein 2-binding protein (Homo sapiens), Q9Y2Y0 (parent)
chain: MDALEGESFALSFSSASDAEFDAVVGYLEDIIMDDEFQLLQRNFMDKYYLEFEDTEENKLIYTPIFNEYISLVEKYIEEQLLQRIPEFNMAAFTTTLQHHKDEVAGDIFDMLLTFTDFLAFKEMFLDYRAEKEGRGLDLSSGLVVTSLCKSSSLPASQNNLRH

Variants of: B1
Details: with myd88_human MYD88, Q99836

Variant	effect of a mutation on the interaction
MNKPITPSTYVRCLNVGLIRKLSDFIDPQEGWKKLAVAIKKPSGDDRYNQFHIRRFEALLQTGKSPTSELLFDWGTTNCTVGDLVDLLIQNEFFAPASLLLPDAVPKTANTLPSKEAITVQQKQMPFCDKDRTLMTPVQNLEQSYMPPDSSSPENKSLEVSDTRFHSFSFYELKNVTNNFDERPISVGGNKMGEGGFGVVYKGYVNNTTVAVKKLAAMVDITTEELKQQFDQEIKVMAKCQHENLVELLGFSSDGDDLCLVYVYMPNGSLLDRLSCLDGTPPLSWHMRCKIAQGAANGINFLHENHHIHRDIKSANILLDEAFTAKISDFGLARASEKFAQTVMTSRIVGTTAYMAPEALRGEITPKSDIYSFGVVLLEIITGLPAVDEHREPQLLLDIKEEIEDEEKTIEDYIDKKMNDADSTSVETMYSVASQCLHEKKNKRPDIKKVQQLLQEMTAS [A428T]	with no effect

Variants of: B2
Details: with cdc42_human CDC42, P60953

Variant	effect of a mutation on the interaction
MSGGPMGGRPGGRGAPAVQQNIPSTLLQDHENQRLFEMLGRKCLTLATAVVQLYLALPPGAEHWTKEHCGAVCFVKDNPQKSYFIRLYGLQAGRLLWEQELYSQLVYSTPTPFFHTFAGDDCQAGLNFADEDEAQAFRALVQEKIQKRNQRQSGDRRQLPPPPTPANEERRGGLPPLPLHPGGDQGGPPVGPLSLGLATVDIQNPDITSSRYRGLPAPGPSPADKKRSGKKKISKADIGAPSGFKHVSHVGWDPQNGFDVNNLDPDLRSLFSRAGISEAQLTDAETSKLIYDFTEDQGGLEAVRQEMRRQEPLPPPPPPSRGGNQLPRPPIVGGNKGRSGPLPPVPLGIAPPPPTPRGPPPPGRGGPPPPPPPATGRSGPLPPPPPGAGGPPMPPPPPPPPPPPSSGNGPAPPPLPPALVPAGGLAPGGGRGALLDQIRQGIQLNKTPGAPESSALQPPPQSSEGLVGALMHVMQKRSRAIHSSDEGEDQAGDEDEDDEWDD [I294T]	disrupting interaction strength
MSGGPMGGRPGGRGAPAVQQNIPSTLLQDHENQRLFEMLGRKCLTLATAVVQLYLALPPGAEHWTKEHCGAVCFVKDNPQKSYFIRLYGLQAGRLLWEQELYSQLVYSTPTPFFHTFAGDDCQAGLNFADKDEAQAFRALVQEKIQKRNQRQSGDRRQLPPPPTPANEERRGGLPPLPLHPGGDQGGPPVGPLSLGLATVDIQNPDITSSRYRGLPAPGPSPADKKRSGKKKISKADIGAPSGFKHVSHVGWDPQNGFDVNNLDPDLRSLFSRAGISEAQLTDAETSKLIYDFIEDQGGLEAVRQEMRRQEPLPPPPPPSRGGNQLPRPPIVGGNKGRSGPLPPVPLGIAPPPPTPRGPPPPGRGGPPPPPPPATGRSGPLPPPPPGAGGPPMPPPPPPPPPPPSSGNGPAPPPLPPALVPAGGLAPGGGRGALLDQIRQGIQLNKTPGAPESSALQPPPQSSEGLVGALMHVMQKRSRAIHSSDEGEDQAGDEDEDDEWDD [E131K]	with no effect

Variants of: B3
Details: with ccnd1_human CCND1, P24385

Variant	effect of a mutation on the interaction
MATSRYEPVAEIGVGAYGTVYKAHDPHSGHFVALKSVRVPNGGGGGGGLPISTVREVALLRRLEAFEHPNVVRLMDVCATSRTDREIKVTLVFEHVDQDLRTYLDKAPPPGLPAETIKDLMRQFLRGLDFLHANCIVHRDLKPENILVTSGGTVKLADFGLARIYSYQMALTPVVVTLWYRAPEVLLQSTYATPVDMWSVGCIFAEMFRRKPLFCGNSEADQLGKIFDLIGLPPEDDWPRDVSLPRGAFPPRGPRPVQSVVPEMEESGAQLLLEMLTFNPHKRISAFRALQHSYLHKDEGNPE [R24H]	with no effect
MATSRYEPVAEIGVGAYGTVYKARDPHSGHFVALKSVRVPNGGGGGGGLPINTVREVALLRRLEAFEHPNVVRLMDVCATSRTDREIKVTLVFEHVDQDLRTYLDKAPPPGLPAETIKDLMRQFLRGLDFLHANCIVHRDLKPENILVTSGGTVKLADFGLARIYSYQMALTPVVVTLWYRAPEVLLQSTYATPVDMWSVGCIFAEMFRRKPLFCGNSEADQLGKIFDLIGLPPEDDWPRDVSLPRGAFPPRGPRPVQSVVPEMEESGAQLLLEMLTFNPHKRISAFRALQHSYLHKDEGNPE [S52N]	with no effect
MATSRYEPVAEIGVGAYGTVYKARDPHSGHFVALKSVRVPSGGGGGGGLPISTVREVALLRRLEAFEHPNVVRLMDVCATSRTDREIKVTLVFEHVDQDLRTYLDKAPPPGLPAETIKDLMRQFLRGLDFLHANCIVHRDLKPENILVTSGGTVKLADFGLARIYSYQMALTPVVVTLWYRAPEVLLQSTYATPVDMWSVGCIFAEMFRRKPLFCGNSEADQLGKIFDLIGLPPEDDWPRDVSLPRGAFPPRGPRPVQSVVPEMEESGAQLLLEMLTFNPHKRISAFRALQHSYLHKDEGNPE [N41S]	with no effect

Variants of: B4
Details: with parva_human PARVA

Variant	effect of a mutation on the interaction
MDDIFTQCREGNAVAVRLWLDNTENDLNQGDDHGFSPLHWACREGRSAVVEMLIMRGARINVMNRGDDTPLHLAASHGHRDIVQKLLQYKADINAVNEHGNVPLHYACFWGQDQVAEDLVANGALVSICNKYGEMPVDKAKAPLRELLRERAEKMGQNLNRIPYKDTFWKGTTRTRPRNGTLNKHSGIDFKQLNFLTKLNENHSGELWKGRWQGNDIVVKVLKVRDWSTRKSRDFNEECPRLRIFSHPNVLPVLGACQSPPVPHPTLITHWMPYGSLYNVLHEGTNFVVDQSQAVKFALDMARGMAFLHTLEPLIPRHALNSRSVMIDEDMTARISMADVKFSFQCPGRMYAPAWVAPEALQKKPEDTNRRSADMWSFAVLLWELVTREVPFADLSNMEIGMKVALEGLRPTIPPGISPHVCKLMKICMNEDPAKRPKFDMIVPILEKMQDK [A262V]	with no effect

Variants of: B5
Details: with hsp7c_human HSPA8, P11142

Variant	effect of a mutation on the interaction
I107R	increasing interaction strength

Variants of: B6
Details: with arl2_human ARL2, P36404

Variant	effect of a mutation on the interaction
MDALEGESFALSFSSASDAEFDAVVGYLEDIIMDDEFQLLQRNFRDKYYLEFEDTEENKLIYTPIFNEYISLVEKYIEEQLLQRIPEFNMAAFTTTLQHHKDEVAGDIFDMLLTFTDFLAFKEMFLDYRAEKEGRGLDLSSGLVVTSLCKSSSLPASQNNLRH [M45R]	disrupting interaction strength
